Measured values from patent US20240360226A1 (AstraZeneca / MedImmune, published 2024).

B1: RAA22/B09-57 DuetMab (bispecific antibody, human IgG1, kappa, lambda)
heavy 1: QVQLVQSGAEVKKPGSSVKVSCKASGGTFSDNDFSWVRQAPGQGLEWMGAIVAVFRTETYAQKFQDRVKITADISTRTTYMELSSLRSEDTAVYYCARRLMSAISGPGAPLLMWGQGTLVTVSSASTKGPSVFPLAPSSKSTSGGTAALGCLVKDYFPEPVTVSWNSGALTSGVHTFPAVLQSSGLYSLSSVVTVPSSSLGTQTYICNVNHKPSNTKVDKRVEPKSCDKTHTCPPCPAPELLGGPSCVFLFPPKPKDTLMISRTPEVTCVVVDVSHEDPEVKFNWYVDGVEVHNAKTKPREEQYNSTYRVVSVLTVLHQDWLNGKEYKCKVSNKALPAPIEKTISKAKGQPREPQVCTLPPSREEMTKNQVSLSCAVKGFYPSDIAVEWESNGQPENNYKTTPPVLDSDGSFFLVSKLTVDKSRWQQGNVFSCSVMHEALHNHYTQKSLSLSPGK
light 1: QSALTQPRSVSGSPGQSVTISCTGTSSDVGGYNYVSWYQQHPGKAPKLMIYDVSKRPSGVPDRFSGSKSGNTASLTISGLQAEDEADYYCSSYTSSDTLEIFGGGTKLTVLGQPKAAPSVTLFPPSSEELQANKATLVCLISDFYPGAVTVAWKADSSPVKAGVETTTPSKQSNNKYAASSYLSLTPEQWKSHRSYSCQVTHEGSTVEKTVAPTECS
heavy 2: QVQLVQSGAEVKKPGASVKVSCKASGYTFTDYYIHWVRQATGQGLEWMGWMNPNSGNTGYAQKFQGRVTMTRDTSISTAYMELSSLRSEDTAVYYCARGQGYTHSWGQGTMVTVSSASTKGPSVCPLAPSSKSTSGGTAALGCLVKDYFPEPVTVSWNSGALTSGVHTFPAVLQSSGLYSLSSVVTVPSSSLGTQTYICNVNHKPSNTKVDKRVEPKSVDKTHTCPPCPAPELLGGPSCVFLFPPKPKDTLMISRTPEVTCVVVDVSHEDPEVKFNWYVDGVEVHNAKTKPREEQYNSTYRVVSVLTVLHQDWLNGKEYKCKVSNKALPAPIEKTISKAKGQPREPQVYTLPPCREEMTKNQVSLWCLVKGFYPSDIAVEWESNGQPENNYKTTPPVLDSDGSFFLYSKLTVDKSRWQQGNVFSCSVMHEALHNHYTQKSLSLSPG
light 2: DIQMTQSPSTLSASVGDRVTITCRASEGIYHWLAWYQQKPGKAPKLLIYKASSLASGVPSRFSGSGSGTEFTLTISSLQPDDFATYYCQQYSNYPPTFGGGTKLEIKRTVAAPSVFIFPPCDEQLKSGTASVVCLLNNFYPREAKVQWKVDNALQSGNSQESVTEQDSKDSTYSLSSTLTLSKADYEKHKVYACEVTHQGLSSPVTKSFNRGEV
notes: Labelled with AlexaFluor-647 in the microscopy experiments; also called RAA22/B09-Maia; bispecific EGFR/cMET DuetMAb
B2: B09-57 IgG (antibody, V domains shown)
VH: QVQLVQSGAEVKKPGASVKVSCKASGYTFTDYYIHWVRQATGQGLEWMGWMNPNSGNTGYAQKFQGRVTMTRDTSISTAYMELSSLRSEDTAVYYCARGQGYTHSWGQGTMVTVSS
VL: DIQMTQSPSTLSASVGDRVTITCRASEGIYHWLAWYQQKPGKAPKLLIYKASSLASGVPSRFSGSGSGTEFTLTISSLQPDDFATYYCQQYSNYPPTFGGGTKLEIK
notes: also called B09-GL; anti-c-Met antibody clone B09-GL

Legend:
[1] = target: EGFR and c-MET co-expressed on HCC827 cells; test: confocal fluorescence microscopy, AF647-labelled antibody pre-bound to cells, T=0
[2] = target: EGFR and c-MET co-expressed on NCI-H1975 cells; test: confocal fluorescence microscopy, AF647-labelled antibody pre-bound to H1975 cells, T=0
[3] = target: EGFR and c-MET co-expressed on HCC827 cells; test: confocal fluorescence microscopy, AF647-labelled antibody pre-bound to HCC827 cells, T=0
[4] = target: Mouse cMET (recombinant) (mouse, UniProt P16056 25-931, limits assumed); test: ELISA, antigen coated at 1 ug/mL, anti-human Fab-HRP detection, A450
Description: (§1) Specificity for EGFR and cMET species paralogs and closely related family members was determined by ELISA. Briefly, antigen solutions were prepared in PBS at 1 μg/mL and 50 microliters was coated onto half area ELISA assay plates. Plates were washed and blocked with 1% BSA in PBS containing 0.005% Tween-20 (PBS-T) for one hour at room temperature. […] Wells were incubated with 50 microliters of the indicated primary antibodies diluted in PBS-T in a 1:3 dilution series, starting at 10 μg/mL and ending at 0.002 ug/mL, except for the HER4 binding mAb control, MAB1131, for which the series started at 1 μg/mL. The wells were washed 4 times in PBS-T, then 50 μl of goat anti-human Fab HRP-labeled secondary antibody, diluted 1:5000 in PBS-T, was added to each well and incubated for one hour at room temperature. […] 50 microliters of TMB stop solution was added to all wells and the absorbance was read at 450 nm on a SpectraMax M5 microplate reader. Data were analyzed in the SoftMax Pro 5 software and plotted using GraphPad Prism 7 graphing software.
(§2) To determine the species cross reactivity, ELISA assays were carried out as described above.

[5] = target: T1, HER2 (Homo sapiens (Human), UniProt P04626 23-652); test: as above
T1 construct: also called EGFR HER family protein HER2

[6] = target: T2, HER3 (Homo sapiens (Human), UniProt P21860 20-643); test: as above
T2 construct: also called EGFR HER family protein HER3

[7] = target: T3, HER4 (Homo sapiens (Human), UniProt Q15303 26-651); test: as above
T3 construct: also called EGFR HER family protein HER4
T3 sequence: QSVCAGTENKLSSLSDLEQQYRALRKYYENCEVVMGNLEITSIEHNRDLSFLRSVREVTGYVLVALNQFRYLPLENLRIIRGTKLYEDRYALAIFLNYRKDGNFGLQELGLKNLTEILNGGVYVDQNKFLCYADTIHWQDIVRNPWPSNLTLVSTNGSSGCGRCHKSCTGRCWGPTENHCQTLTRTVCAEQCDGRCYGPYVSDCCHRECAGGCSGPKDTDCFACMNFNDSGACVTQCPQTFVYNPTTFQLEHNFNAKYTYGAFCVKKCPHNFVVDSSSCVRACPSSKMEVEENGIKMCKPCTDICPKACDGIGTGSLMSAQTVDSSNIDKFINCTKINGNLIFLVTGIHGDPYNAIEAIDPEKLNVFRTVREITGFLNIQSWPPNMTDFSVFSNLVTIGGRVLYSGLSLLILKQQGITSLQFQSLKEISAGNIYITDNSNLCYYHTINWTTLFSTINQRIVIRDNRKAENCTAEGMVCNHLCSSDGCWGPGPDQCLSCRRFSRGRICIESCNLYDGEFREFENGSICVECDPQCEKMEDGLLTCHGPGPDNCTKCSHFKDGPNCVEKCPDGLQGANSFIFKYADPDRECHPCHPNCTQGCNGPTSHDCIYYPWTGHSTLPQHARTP

[8] = target: T4, Cynomolgus monkey cMET (recombinant, soluble monomeric) (cynomolgus monkey, UniProt A0M8R7 25-932 (Papio anubis entry)); test: SPR (Biacore T200), antibody captured on anti-human IgG, soluble monomeric antigen as analyte, 25 C
T4 construct: also called cyno c-Met
Description: (§3) Mouse anti-human IgG was immobilized on a CM4 sensor chip with a final surface density of ˜2000 resonance units (RUs). A reference flow cell surface was also prepared on this sensor chip using identical immobilization protocol. Test and control article antibodies were prepared at 5-20 nM in instrument buffer (HBS-EP buffer; 0.01M HEPES, pH 7.4, 0.15M NaCl, 3 mM EDTA, and 0.005% P-20), along with 3-fold serial dilutions of purified EGFR (0.27-200 nM human, 0.4-900 nM cyno, and 4-1000 nM murine) or cMET proteins (0.27 to 66 nM human and 0.27-22 nM cyno) in instrument buffer. A sequential approach was utilized for kinetic measurements. Antibodies were first injected over the capture surface, at a flow rate of 10 μL/minute. Once the binding of the captured antibody stabilized, a single concentration of the analyte was injected over both capture and reference surfaces, at a flow rate of 75 μL/minute. The resulting binding response curves yielded the association phase data. Following the injection of analyte, the flow was then switched back to instrument buffer for 15 minutes to permit the collection of dissociation phase data, followed by a 1-minute pulse of 10 mM glycine, pH 1.5, to regenerate the antibody-captured surface on the chip. Binding responses against test and control article antibodies were recorded from duplicate injections of each concentration of analyte. In addition, several buffer injections were interspersed throughout the injection series. Select buffer injections were used along with the reference cell responses to correct the raw data sets for injection artifacts and/or nonspecific binding interactions, commonly referred to as “double referencing”. Corrected binding data were globally fit to a 1:1 binding model (Biacore T200 Evaluation software 2.0, GE Healthcare, Pittsburgh, PA).
(§4) Kinetic measurements to soluble monomeric forms of EGFR and cMET were performed using a BIACore instrument.

[9] = target: T5, Human EGFR (recombinant, soluble monomeric) (human, UniProt P00533 25-645); test: as above
T5 construct: also called EGFR antigen; recombinant human EGFR
Description: as §3, §4

[10] = target: T6, Cynomolgus monkey EGFR (recombinant, soluble monomeric) (cynomolgus monkey, UniProt P55245 25-645 (rhesus entry)); test: as above
T6 construct: also called cyno EGFR
Description: as §3, §4

[11] = target: T7, Mouse EGFR (recombinant, soluble monomeric) (mouse, UniProt Q01279 25-647); test: as above
T7 construct: also called murine EGFR
Description: as §3, §4

[12] = target: T8, Human cMET (recombinant, soluble monomeric) (human, UniProt P08581 25-932); test: as above
T8 construct: also called His-tagged cMET antigen
Description: as §3, §4

[13] = target: T6, Cynomolgus monkey EGFR (recombinant, …); test: ELISA, antigen coated at 1 ug/mL, anti-human Fab-HRP detection, A450
Description: as §1, §2

[14] = target: T7, Mouse EGFR (recombinant, soluble …); test: as above
Description: as §1, §2

[15] = target: T5, Human EGFR (recombinant, soluble …); test: biolayer interferometry (Octet), antibody bound to cMET captured on NI-NTA sensors, then human EGFR

T8 sequence (P08581 25-932): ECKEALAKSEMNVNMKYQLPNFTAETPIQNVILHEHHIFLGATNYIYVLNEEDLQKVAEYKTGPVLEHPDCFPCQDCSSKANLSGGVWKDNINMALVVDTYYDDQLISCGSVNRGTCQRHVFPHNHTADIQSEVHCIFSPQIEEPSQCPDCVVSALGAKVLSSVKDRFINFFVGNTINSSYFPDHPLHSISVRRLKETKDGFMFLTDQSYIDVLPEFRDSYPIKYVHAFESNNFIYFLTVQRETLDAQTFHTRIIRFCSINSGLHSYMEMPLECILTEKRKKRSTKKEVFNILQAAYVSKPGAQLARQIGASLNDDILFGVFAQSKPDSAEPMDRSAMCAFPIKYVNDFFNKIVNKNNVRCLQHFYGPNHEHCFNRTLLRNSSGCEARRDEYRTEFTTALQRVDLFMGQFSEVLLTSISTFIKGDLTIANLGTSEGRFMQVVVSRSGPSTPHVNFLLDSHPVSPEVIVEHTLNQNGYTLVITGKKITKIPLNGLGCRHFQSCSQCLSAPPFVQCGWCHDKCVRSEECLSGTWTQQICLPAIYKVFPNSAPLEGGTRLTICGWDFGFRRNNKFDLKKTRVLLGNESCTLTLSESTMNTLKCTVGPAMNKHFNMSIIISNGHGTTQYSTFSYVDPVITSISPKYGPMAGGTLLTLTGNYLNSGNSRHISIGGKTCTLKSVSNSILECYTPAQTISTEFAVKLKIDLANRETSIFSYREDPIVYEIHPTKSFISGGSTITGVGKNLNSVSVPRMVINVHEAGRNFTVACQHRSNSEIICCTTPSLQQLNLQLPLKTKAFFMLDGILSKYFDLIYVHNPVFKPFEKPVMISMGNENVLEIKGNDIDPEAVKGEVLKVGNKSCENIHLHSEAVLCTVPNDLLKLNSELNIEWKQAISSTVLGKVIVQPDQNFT
T4 sequence (A0M8R7 25-932 S170N/I621T): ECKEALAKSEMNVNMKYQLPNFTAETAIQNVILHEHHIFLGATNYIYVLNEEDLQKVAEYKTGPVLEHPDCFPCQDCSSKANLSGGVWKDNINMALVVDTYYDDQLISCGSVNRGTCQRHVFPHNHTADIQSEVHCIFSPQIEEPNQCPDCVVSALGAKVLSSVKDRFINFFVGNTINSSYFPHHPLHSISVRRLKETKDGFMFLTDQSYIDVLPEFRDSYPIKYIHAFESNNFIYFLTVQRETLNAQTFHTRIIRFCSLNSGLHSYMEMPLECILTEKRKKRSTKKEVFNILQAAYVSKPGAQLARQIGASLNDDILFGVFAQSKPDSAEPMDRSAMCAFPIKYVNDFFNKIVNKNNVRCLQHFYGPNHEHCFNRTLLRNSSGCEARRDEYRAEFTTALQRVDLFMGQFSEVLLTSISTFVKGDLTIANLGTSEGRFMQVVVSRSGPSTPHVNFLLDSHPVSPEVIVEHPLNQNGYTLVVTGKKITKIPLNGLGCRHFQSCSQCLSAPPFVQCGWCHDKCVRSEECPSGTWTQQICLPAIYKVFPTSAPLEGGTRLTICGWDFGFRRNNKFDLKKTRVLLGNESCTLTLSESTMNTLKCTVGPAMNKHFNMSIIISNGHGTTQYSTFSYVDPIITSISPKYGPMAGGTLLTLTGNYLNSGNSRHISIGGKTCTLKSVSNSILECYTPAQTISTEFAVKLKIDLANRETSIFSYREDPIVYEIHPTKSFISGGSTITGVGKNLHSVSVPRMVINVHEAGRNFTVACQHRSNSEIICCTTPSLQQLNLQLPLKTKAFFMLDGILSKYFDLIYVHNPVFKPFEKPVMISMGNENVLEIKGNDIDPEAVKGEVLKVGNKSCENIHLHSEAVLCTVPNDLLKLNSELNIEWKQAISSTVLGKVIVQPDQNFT
Chain of Mouse cMET (recombinant) (P16056 25-931 limits assumed): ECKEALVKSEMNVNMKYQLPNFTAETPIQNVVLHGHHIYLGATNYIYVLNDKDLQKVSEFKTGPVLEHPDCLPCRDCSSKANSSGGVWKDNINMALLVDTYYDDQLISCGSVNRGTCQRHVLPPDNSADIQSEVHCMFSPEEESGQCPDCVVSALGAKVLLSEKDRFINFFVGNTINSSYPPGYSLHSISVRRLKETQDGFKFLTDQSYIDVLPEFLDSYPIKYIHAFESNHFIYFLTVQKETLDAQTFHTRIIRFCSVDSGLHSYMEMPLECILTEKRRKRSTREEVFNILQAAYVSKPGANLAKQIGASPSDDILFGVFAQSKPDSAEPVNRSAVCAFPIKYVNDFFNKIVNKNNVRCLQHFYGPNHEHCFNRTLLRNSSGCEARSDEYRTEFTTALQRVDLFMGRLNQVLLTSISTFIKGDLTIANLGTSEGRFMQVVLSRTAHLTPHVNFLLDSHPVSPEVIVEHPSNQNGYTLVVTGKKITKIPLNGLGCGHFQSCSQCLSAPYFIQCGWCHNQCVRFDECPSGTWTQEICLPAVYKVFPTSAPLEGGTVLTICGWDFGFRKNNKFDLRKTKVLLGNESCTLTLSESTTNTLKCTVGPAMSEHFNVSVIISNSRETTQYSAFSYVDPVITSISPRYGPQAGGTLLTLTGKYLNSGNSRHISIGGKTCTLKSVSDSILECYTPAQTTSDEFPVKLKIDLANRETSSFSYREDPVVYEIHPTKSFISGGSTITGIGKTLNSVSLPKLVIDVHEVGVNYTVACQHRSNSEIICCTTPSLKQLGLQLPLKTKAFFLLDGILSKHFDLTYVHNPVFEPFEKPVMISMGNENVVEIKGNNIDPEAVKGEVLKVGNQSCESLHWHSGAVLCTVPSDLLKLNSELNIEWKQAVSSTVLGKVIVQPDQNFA

| Binder | binding result [4] | binding result [5] | binding result [6] | binding result [7] | Kd [8] | koff [8] | kon [8] | Kd [12] | koff [12] | kon [12] | other results |
| --- | --- | --- | --- | --- | --- | --- | --- | --- | --- | --- | --- |
| B1 | no binding (tested: 10 ug/ml) | no binding (tested: 10 ug/ml) | no binding (tested: 10 ug/ml) | no binding (tested: 10 ug/ml) | 2.2 nM | 0.00212 s⁻¹ | 974000 M⁻¹ s⁻¹ | 2.2 nM | 0.000986 s⁻¹ | 443000 M⁻¹ s⁻¹ | fold higher binding than on H1975 cells [1]: 8.9 fold; MFI [2]: 3.5e+06 MFI; MFI [3]: 3.1e+07 MFI; Kd [9]: 45 nM; koff [9]: 0.00201 s⁻¹; kon [9]: 44700 M⁻¹ s⁻¹; Kd [10]: 197 nM; koff [10]: 0.00548 s⁻¹; kon [10]: 27800 M⁻¹ s⁻¹; Kd [11]: 575 nM; koff [11]: 0.0206 s⁻¹; kon [11]: 35400 M⁻¹ s⁻¹ |
| B2 | no binding (tested: 10 ug/ml) | no binding (tested: 10 ug/ml) | no binding (tested: 10 ug/ml) | no binding (tested: 10 ug/ml) | 1.9 nM | 0.00194 s⁻¹ | 1.04e+06 M⁻¹ s⁻¹ | 1.6 nM | 0.000882 s⁻¹ | 563000 M⁻¹ s⁻¹ | binding result [13]: no binding (tested: 10 ug/ml); binding result [14]: no binding (tested: 10 ug/ml); binding result [15]: no binding (tested: 500 nM EGFR) |
